Measured values as given in US11110171B2, “PD-1 related cancer therapy” (New York University, priority 2017, dated 2021).

Molecular target: T1, SHP2PTP (the catalytic domain of SHP2) (Homo sapiens, UniProt Q06124)
T1 construct: purchased Abcam 42578 (SHP2 catalytic domain); 101112 (SAP)
T1 sequence (Q06124 247-517 limits assumed): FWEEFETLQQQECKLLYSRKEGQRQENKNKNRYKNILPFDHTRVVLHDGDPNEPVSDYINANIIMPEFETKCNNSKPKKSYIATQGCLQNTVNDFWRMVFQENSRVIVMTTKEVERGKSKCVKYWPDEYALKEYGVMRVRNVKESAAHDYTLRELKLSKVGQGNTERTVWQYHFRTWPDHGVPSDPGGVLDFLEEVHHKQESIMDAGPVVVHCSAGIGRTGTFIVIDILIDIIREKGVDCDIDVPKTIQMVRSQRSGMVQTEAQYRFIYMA
Experiment: Co-affinity enrichment of His-tagged SAP and GST-tagged SHP2PTP
Format: binding
Settings: recombinant proteins in the absence of T cell lysate
Protocol: FIG. 3. SAP is indirectly associated with PD-1. (ai) Pervanadate treated Jurkat T cells were transiently transfected with GFP-tagged PD-1 or GFP alone; Whole cell lysates (WCL) were immunoprecipitated with an anti-GFP antibody (IP: GFP), and samples were analyzed by immunoblotting. (aii) Densitometry values of data shown in ai. (b) Jurkat T cells were transfected with plasmids directing expression of the indicated fluorescent proteins and after 24 hours cells were stimulated with anti-CD3 antibodies and recombinant PDL2, followed by live-imaging. Bar, 10 μm. […] (di) Jurkat T cells were transfected with different versions of GFP-tagged PD-1, as indicated, followed by treatment with pervanadate; Whole-cell lysates (Input) were immunoprecipitated with an anti-GFP antibody (IP: GFP), and samples were analyzed by immunoblotting. […] (ei) 293T cells were transfected with plasmid directing expression of GFP-SAP or a control GFP plasmid, followed by treatment with pervanadate; Lysates were pulled-down with the GST-tagged PD-1 and samples were analyzed by immunoblotting. […] (gi) SHP2 KD and scrambled control Jurkat T cells were transfected with GFP-tagged PD-1, followed by treatment with pervanadate; Lysates were immunoprecipitated with an anti-GFP antibody (IP: GFP), and samples were analyzed by immunoblotting. […] Samples were analyzed by immunoblot. […]

B1: SAP: Recombinant human SAP (His tagged), signaling lymphocytic activation molecule-associated protein, purchased from Abcam (protein, UniProt O60880 1-128, looked up)
SH2 domain-containing protein …: MDAVAVYHGKISRETGEKLLLATGLDGSYLLRDSESVPGVYCLCVLYHGYIYTYRVSQTETGSWSAETAPGVHKRYFRKIKNLISAFQKPDQGIVIPLQYPVEKKSSARSTQGTTGIREDPDVCLKAP
modifications: His tag
B1 was tested, and the “direct interaction of SAP with SHP2 catalytic domain” value was “lack of direct interaction”.
